# Test: soluble on expression in E. coli; label from the status in PepcDB or PDB records
row,Sequence,soluble on expression in E. coli
1,GMVEPMTPRFKYTKASQENIQQLGNILEQCFVMSFGDSEIYVKGIGLENFRVIYREQKVAGGLAILPMGQWWGGQRVPMAGIAAVGIAPEYRGDGAAIALIQHTLQEISEQDIPISVLYPATQRLYRKAGYEQAGSSCVWEIPTDSIQIQHASLPLEPVVLKNNPIFHELYQQQAQLTHGYLDRHPAIWQGLNRTLDTETLYSYLIGDKDKPQGYIIFTQERTRDGSILRIRDWVTLSNPAVQSFWTFIANHRSQIDKVTWKSSVIDALTLLLPEQSATIRSQDRWMLRIVNVCKALEARGYPLGVEAELHLEVQDDLLATNQGKFILSVANGKSEVTKGGKGELQLDIKGLASLYTSLFTPRQLQLTGKLQATETALLKATQIFAGESPWMIDFF,soluble
2,GMVRYPLEPVLSIKKDRVDRAEKVVKEKRRLLELEQEKLRERESERDKVKNHYMQKIRQLREQLDDGTTSDAILKMKAYIKVVAIQLSEEEEKVNKQKENVLAASKELERAEVELTKRRKEEEKTRLHKEEWMKEALKEEARQEEKEQDEMGQLLHQLHKQKQRESGEN,soluble
3,GMVYVDPDRFDELVAEALDGIPEEFARAMRNVAVFVEDEPDDPELLGLYVGIPLTERTTAYGGVLPDRIIIYRNTICALCETESEVIDEVRKTVVHEIAHHFGIDDERLHELGY,soluble
4,GNGFDVENYKDKEIVIVAGGTGVSPVRGVVEYFAKNSKEAKSVTLIAGFKTPKDILFSEDFKEWKNNINIILTVDSAEGDSNFKEGLVTKYIPELKLQNVKEASAIVVGPPAMMRFSTQGLLDVGFKEENMWISQERKMCCGIGKCGHCKIDDVY,not soluble
5,GPGHMEGLRCVVLPEDLCHKFLQLAESNTVRGIETCGILCGKLTHNEFTITHVIVPKQSAGPDYCDMENVEELFNVQDQHDLLTLGWIHTHPTQTAFLSSVDLHTHCSYQLMLPEAIAIVCSPKHKDTGIFRLTNAGMLEVSACKKKGFHPHTKEPRLFSICKHVLVKDIKIIVLDLR,soluble
6,GPGSDQLKQSAFLVRNDEKVAALIVLLKRVLHVGEAAANSAQALIFSESKFHVEFLQMILTHYSISTSAVHGQMDQEARRLAVRSFAKRETSVMVVTDVAARGLDLPLLDNVVNFSFPFNPKLFVHRVGRVARAGRSGTAYSIMTFEDFPYYVDLMQFIGRPLQSAPVPGDLLFTPDDGCYGRLPEEDIQLELDFLKRLH,not soluble
7,GPGSMACLSRIDANLLQYYEKPEPNNTVDLYVSNNSNNNGLKEGDKSISTPVPQPYGSEYSNCLLLSNSEYICYHFSSRSTLLTFYPLSDAYHGKTINIHLPNASMNQRYTLTIQEVEQQLLVNVILKDGSFLTLQLPLSFLFSSANTLNGEWFHLQNPYDFTVRVPHFLFYVSPQFSVVFLEDGGLLGLKKVDGVHYEPLLFNDNSYLKSLTRFFSRSSKSDYDSVISCKLFHERYLIVLTQNCHLKIWDLTSFTLIQDYDMVSQSDSDPSHFRKVEAVGEYLSLYNNTLVTLLPLENGLFQMGTLLVDSSGILTYTFQNNIPTNLSASAIWSIVDLVLTRPLELNVEASYLNLIVLWKSGTASKLQILNVNDESFKNYEWIESVNKSLVDLQSEHDLDIVTKTGDVERGFCNLKSRYGTQIFERAQQILSENKIIMAHNEDEEYLANLETILRDVKTAFNEASSITLYGDEIILVNCFQPYNHSLYKLNTTVENWFYNMHSETDGSELFKYLRTLNGFASTLSNDVLRSISKKFLDIITGELPDSMTTVEKFTDIFKNCLENQFEITNLKILFDELNSFDIPVVLNDLINNQMKPGIFWKKDFISAIKFDGFTSIISLESLHQLLSIHYRITLQVLLTFVLFDLDTEIFGQHISTLLDLHYKQFLLLNLYRQDKCLLAEVLLKDSSEFSFGVKFFNYGQLIAYIDSLNSNVYNASITENSFFMTFFRSYIIENTSHKNIRFFLENVECPFYLRHNEVQE,soluble
8,GPGSMADYLREKVLESLGISFRETQNCRRWITEVTNMIWEAQPAELRTALCWTTPLGLVVRQPYKVRKEITLFTPHGCSRIPGDAFSAASRKQLTAIAPNLIHSLDATHLAMTAIEMQNLGLSMMAVHDSYWTYACDLPVLSKVLRQQFVTLYSKYDPLWELKEQWEEAYFMDLRRHGTLLPDPPKRGDLDLSVVLDSPYFFS,not soluble
9,GPGSMAGWASLGRSFRTPESRSEELVKKAIEGDALRIGSGDTVKHEEAVSPFAAKLFSNITGSQRYVLIAVRHTQPATVDESRKAAIFHHDIRQAGIAMGHDEILAVGHARLEPGEQFGWREPLMLFVQIILIDKTGFHPSTCSLDAMFRLVVEWAGSRIKRMQPPHCISHDGYFLGRSKVR,not soluble
10,GPGSMDAVRAMDYTDIYLRPRKKESVSPQEPLRSAQVDSAAESRVEWMLKGAFSVQQLLDRVEELSARVCMFDEKMVNLTKLVKLAQGIQEEKEADIRFQQQELLSRLKRLEQACARLEDMETFKQFIISKVQETLEDAHQAFLSDLAKIRADGEEQAARTKQRIENTVSDVRRDVEERIASLWGEAEQKDLSRQEAQDTLREKLRLVESSLRDLEMSVGRDYSRVPPLQEKIDGITQSLSSLEQKVDKTAGTVVTLGNEAKQARALLMEEIETTRQWVTRNLQRVKQHVEVISSDVEQLHNGRADLSARISRISCQADMECKKLRSQLSQKALVADALDNLVQKEFYKVEDVALRHQSLRTEVGAVKDV,not soluble
11,GPGSMDTECLRARHSECIDLASVQLRRQLMDSGIPFTEAEIAALPARFVELLISRLEMFRQREVETRAAVDKCRRETEVEEMRFEQLREATERVQGEKRIISSKISAAVSEYMREDKLEKEKQRERHNELQEVFRQVEKKEAEHRREIIEMERLRKMLKKVTK,not soluble
12,GPGSMEDYKAKGNDAFKAKRYQEAIDWYTKAIELDPNGEASGALYSNRAGSWQNLNNFEKAAADSEQCIRLRPDWLKGYFRLGVAMESMVKYDEAQKAFQKALQLSPGNEEGWTSCTPLILKFASAYEKTKSRSARPLKKPSNLATPS,soluble
13,GPGSMEFVAEAHGYLITGLALDSQGDLFAICSCSGELLRLNKEENTLVSIMATEASPYNIAIEPNSGSVFITDRSENAILKLEDAATVRAEQELREGKDQESQAAYTTVQYLNAFEGRSFLGPTAIAFSPSGELFFTDAGAEGDSSFSDPVGAVYRTTMNHEHLVPICTRGLIRPSAIAVAPDNSVYVCEQGTNRVLRFVQRSTFYVGNVFAQLQGGMGPRAIAVSPRDGSVFVAQYDISAVEAPTEEGESEKGNEDAGEGEGGDDGKVQNQSALESAGEGGIITVLGRDGDVRGIVRTMRPCITAIALDASGETLYVMEGDEANGSSKLYKLQVLPLDDQQCGGQAE,not soluble
14,GPGSMEQWSACEAATRRVLAVDRTERYPSARRLVRVFISQGRLQEAQQAVSPHRDAIDWAAEVAAVKACTSYTNFYAAHQYSKALESLEVVLSLCPCGTLEAAKARLLSLENAAQAVSYAAQRSRAYATSTELHFCLWSLTFHSVTSVVGLDTLLADMQATPLGRSELRFRHLHTHIARCKEALAKLQVLKTARQWREAATFVTQVLAEPFLPDGLKGVMYYERARALAQQASWYATLDDTHRALSYTEAVSLRANMLLLVARCEEALGRLRDAVYHTEESLGLASNAAAVEQLRSLKARWAHVQASTDAPRTTPRTTSKETPKPNTNANAFSPVSRASLDVHYKTLSLPRSAGAAEVKKSYRALAIKWHPDRWCSASTEAIRTAESTFKTIQHAYEEIMKSAS,not soluble
15,GPGSMERVTYARTGALRSTYAGLPVTKERLVTAAPAKWFPLLTTVPQRVLKSISDSDGVDGSLLGFLPIAFVFEELRKHLSDFTQHAAFLRAVLQWYHQTAGDTLESEIATDKVEIFQPYLPAYRLRVLKEGETVATFNDISRRAVTLMGKDRGINDIPLDHPSCSAQHAALEVNFVHRNSEPFQQRLHTLMQEEYRNINWSSPDEVGKLCAHALQLMREFGGDEDMWLMELQVVDLGSTNGTNLNGELLRPLERATVIEGDVLTFGYSTRKYLIVRA,soluble
16,GPGSMGTDKVMSEKLVLEKTKVKSLSDVQRLDMWGEGLTDISLVAKLPRLEVLALAANNVSSLKALQGCELLQELYLRKNKVANLREVTALRVLPTLSVLWLRDNPCAQHPYYREFVLHCCPGLRQLDGVEVTADERKAAAKRLTTKTLDEILGRSACADAASSPRPKKSSGAGSSPAKATDVTPSSTPGGVSDSTATIEERNASSRSVLFTTVAAQRAMLLSIVSLLSELTVESLELLQREVQERVEKQKEKLTKYVQENSQ,soluble
17,GPGSMHAAPYEEVALSDMLLEDGKLRYPCPCGDLFELSLSEFAKGSVVAECPTCSLTVRIICNEEERHAFLLRCNALNGVRDVVIA,not soluble
18,GPGSMHGIRRWRVRLVNRACQSLSGSLVFSACRHCATVPTEDDVRKAYKILGVHTSATLTDVKKRYGDLAKEHHPDVSNSSAVSSTNRMTDINNAYNTVKQFHQAGRRLFEATRAPNASGASDSSSSSYYSKQDSAYQPWYEDMDPLMYELMWEEMRRQNEEDSFARNMHAEAFYRPNDRWRPPRGNASARPRQSSGSSDGRQSHAGKKSPSSTTWPEEQVKAMVNMYQDGKSFEFIANALGKESAAAVLEEFNRWSSDNQPQRRKGAKPHHARRHRYHGGHGPFYHTESPDEVPFELYEMMEEEPYYDGSSEESGDPFGYYSGDGEAYDVPYTHATPFYGVHQMNGGPAPYGHFEGGVGREYNSSRKMSHRPMRNHRGGPPNKNRRYGGTSSNHKGSGGGFQSGNGKSHGSGGGKT,not soluble
19,GPGSMHRIVKVNVGGRYFQTRLSTLLRFPDTSFARMFEGLASTSALPPTLSPPPQPTESEDVFVDANPDVFEKVLGFLRTNRIQLPLNDECLRAELVHHLNSWDLMPHAFPASAADGAVEGEEAHRIELPDVCVVQLCDHMQHDQGVKRHAMTITYGADGFQLRKLTQMIRRDLNQQLSSTYWQCYQTNERAAFFATTKVANGAADILTTSITQQVVQHTERLGYHLATSYVTL,not soluble
20,GPGSMLLERQQLVQALQLSYHCSAACATSTVNSYYPDEEKCRATVQGKMTAPFVLAVGMVPKQREYVDSLRDDLAVAFQHFPYLNGTAKPPDKEEQKGCAKAVASGERGRNGRASSPASIDWAGVRARLLSPKKVPLWYMHTELVFPGDTHDVRIYENAYQSLIVKEGFSYVIGCYASGDGVVPALDYVNARLCGESVQSLAQRIGFDDDVVEALEGLEAEVPTRVYTRVNAFGNNPATSRSSRQDKGHAQQVLKEAGLAYVRSYVTTRADEAVAKVEDGTLLLPVVVKPNSGAGSEFVTLCYTVDDIRVAFSMVEGVRTSQGTDAAQLVVEEYIEGPEYVVNTVSYQGVHVVTDVWESWKYPEPVVTTGLTRSAEEALRAAGIKRQKQRKISILYDRQTLITNLADLPATHSARRIVEYTLKCLDALGLENGCGHSEVRLDTRKAARELRRHEQRRPKTNSPLGKVKDEHLDEGEPILIELNSRMQGDIPRSTDVIGYDQYSLLVYISEAVNVFGAATAASTALPFRVDSSRPQRVGEIPWPPVPRLYRARPSTGLPLATTVLFLATEEECILNGVALRTLTELGTFQRFTRTIFKPNQPGFVTPLRHTVDLFSSPTSCVMQGPAAAVKADCAAIRSMESAALCSAAKAALFKLTSTIHETERLRENARIIDGRLHAMTEAYRRASAQAGSATDEVADDGREKDEQGTENDCCSSQHDLEALRRSISSLQSELTWVTNNLAADDRQVQLLRTEFAKALASQKPAPLYINYQDFSMMKAAGVGNELAVL,not soluble

# Source: the DeepSol protein solubility set
